We go through 39 variants from the RNAGym collection of RNA variant scans (doi:10.7554/elife.90254).

The labels stand for the following.
B1: LINE1-full (parent)
chain: UACGUAGGUGGUUUUCCCCUGAUAGUGCUAAGGGGGCCUGGAAGUUUGGACUGGGCAGAGCUCAACACAGCGUGGCAAAGUGGCUGUGGCUAGACUGCCUCUCUGGAUUCCUCGUCACUCAGCAGGGCAUCUCUGAGAGAAAUGCC

Variants of B1 are the subject of this data set. As to the kind of experiment: self-cleavage, relative activity (ratio to wild type); higher = more cleavage; in vitro, sequencing; the parent is a self-cleaving ribozyme.
Turning to UACGUAGGUGGUUUUCCCCUGAAAGUGCUAAGGGGGCCUGGAAGUUUGGACUGGGCAGAGCUCAACACAGCGCGGCAAAGUGGCUGUGGCUAGACUGCCUCUCUGGAUUCCUCGUCACUCAGCAGGGCAUCUCUGAGAGAAAUGCC [U23A U73C], the self-cleavage worked out at 1.24.
With UACGUAGGUGGUUUUCCCCUGAAAGUGCUAAGGGGGCCUGGAAGUUUGGACUGGGCAGAGCCCAACACAGCGUGGCAAAGUGGCUGUGGCUAGACUGCCUCUCUGGAUUCCUCGUCACUCAGCAGGGCAUCUCUGAGAGAAAUGCC [U23A U62C] the figure was 0; with UACGUAGGUGGUUUUCCCCUGAAAGUGCUAAGGGGGCCUGGAAGUUUGGACUGGGCAGAGCACAACACAGCGUGGCAAAGUGGCUGUGGCUAGACUGCCUCUCUGGAUUCCUCGUCACUCAGCAGGGCAUCUCUGAGAGAAAUGCC [U23A U62A], 0.05.
With UACGUAGGUGGUUUUCCCCUGACAGUGCUAAGGGGGCCUGGCAGUUUGGACUGGGCAGAGCUCAACACAGCGUGGCAAAGUGGCUGUGGCUAGACUGCCUCUCUGGAUUCCUCGUCACUCAGCAGGGCAUCUCUGAGAGAAAUGCC [U23C A42C] the figure was 0; with UACGUAGGUGGUUUUCCCCUGACAGUGCUAAGGGGGCCUGGGAGUUUGGACUGGGCAGAGCUCAACACAGCGUGGCAAAGUGGCUGUGGCUAGACUGCCUCUCUGGAUUCCUCGUCACUCAGCAGGGCAUCUCUGAGAGAAAUGCC [U23C A42G], 1.18.
Turning to UACGUAGGUGGUUUUCCCCUGAAAGUGCUAAGGGGGCCUGGAAGUUUGGACUGGGCAGAGCUCAACACAGCGUGGCAAAGUGGCAGUGGCUAGACUGCCUCUCUGGAUUCCUCGUCACUCAGCAGGGCAUCUCUGAGAGAAAUGCC [U23A U85A], the self-cleavage came out at 0.08.
On to UACGUAGGUGGUUUUCCCCUGACGGUGCUAAGGGGGCCUGGAAGUUUGGACUGGGCAGAGCUCAACACAGCGUGGCAAAGUGGCUGUGGCUAGACUGCCUCUCUGGAUUCCUCGUCACUCAGCAGGGCAUCUCUGAGAGAAAUGCC [U23C A24G], for which the self-cleavage is 1.48.
UACGUAGGUGGUUUUCCCCUGAAAGUGCUAAGGGGGCCUGGAAGUUUGGACUGGGCAGAGCUCAACACAGCGUGGCAAAGUGGCUGUGGCUAGACUGCCUCUCUGGAUUCCUCGCCACUCAGCAGGGCAUCUCUGAGAGAAAUGCC [U23A U115C]: the self-cleavage is 1.18.
For UACGUAGGUGGUUUUCCCCUGAAAGUGCUAAGGGGGCCUGGAAGUUUGGACUGGGCAGAGCUCAACACAGCGUGGCAAAGUGGCUGUGGCUAGACUGCCUCUCUGGAUUCCUCGUCACUCAGCAGGGCAUCUCGGAGAGAAAUGCC [U23A U134G], the self-cleavage turned out to be 0.89.
Then UACGUAGGUGGUUUUCCCCUGAAAGUGCUAAGGGGGCCUGGAAGCUUGGACUGGGCAGAGCUCAACACAGCGUGGCAAAGUGGCUGUGGCUAGACUGCCUCUCUGGAUUCCUCGUCACUCAGCAGGGCAUCUCUGAGAGAAAUGCC [U23A U45C], with 0.71.
For the variant UACGUAGGUGGUUUUCCCCUGAAAGUGCUAAGGGGGCCUGGAAGUGUGGACUGGGCAGAGCUCAACACAGCGUGGCAAAGUGGCUGUGGCUAGACUGCCUCUCUGGAUUCCUCGUCACUCAGCAGGGCAUCUCUGAGAGAAAUGCC [U23A U46G], the self-cleavage is 0.35.
Then UACGUAGGUGGUUUUCCCCUGAAAGUGCUAAGGGGGCCUGGAAGUCUGGACUGGGCAGAGCUCAACACAGCGUGGCAAAGUGGCUGUGGCUAGACUGCCUCUCUGGAUUCCUCGUCACUCAGCAGGGCAUCUCUGAGAGAAAUGCC [U23A U46C], with 1.57; and UACGUAGGUGGUUUUCCCCUGAAAGUGCUAAGGGGGCCUGGAAGUUUGGACUGGGCAGAGCUCAACACAGCGUGGCAAAGUGGCUGAGGCUAGACUGCCUCUCUGGAUUCCUCGUCACUCAGCAGGGCAUCUCUGAGAGAAAUGCC [U23A U87A], with 0.09.
Then UACGUAGGUGGUUUUCCCCUGAAAGUGCUAAGGGGGCCCGGAAGUUUGGACUGGGCAGAGCUCAACACAGCGUGGCAAAGUGGCUGUGGCUAGACUGCCUCUCUGGAUUCCUCGUCACUCAGCAGGGCAUCUCUGAGAGAAAUGCC [U23A U39C], with 0.65; and UACGUAGGUGGUUUUCCCCUGACAGUGCUAGGGGGGCCUGGAAGUUUGGACUGGGCAGAGCUCAACACAGCGUGGCAAAGUGGCUGUGGCUAGACUGCCUCUCUGGAUUCCUCGUCACUCAGCAGGGCAUCUCUGAGAGAAAUGCC [U23C A31G], with 0.85; and UACGUAGGUGGUUUUCCCCUGAAAGUGCUAAGGGGGCCUGGAAGUUUGGACUGGGCAGAGCUCAACACAGCGUGGCAAAGUGGCUGUGGCUAGACCGCCUCUCUGGAUUCCUCGUCACUCAGCAGGGCAUCUCUGAGAGAAAUGCC [U23A U96C], with 0.19.
Then UACGUAGGUGGUUUUCCCCUGAAAGUGCUAAGGGGGCCUGGAAGUUUGGACUGGGCAGAGCUCAACACAGCGUGGCAAAGUGGCUGUGGCUAGACAGCCUCUCUGGAUUCCUCGUCACUCAGCAGGGCAUCUCUGAGAGAAAUGCC [U23A U96A], with 0.08; and UACGUAGGUGGUUUUCCCCUGAAAGUGCUAAGGGGGCCUGGAAGUUUGGACUGGGCAGAGCUCAACACAGCGUGGCAAAGUGGCUGUGGCUAGACUGCCCCUCUGGAUUCCUCGUCACUCAGCAGGGCAUCUCUGAGAGAAAUGCC [U23A U100C], with 1.26; and UACGUAGGUGGUUUUCCCCUGAAAGUGCUAAGGGGGCCUGGAAGUUUGGACUGGGCAGAGCUCAACACAGCGUGGCAAAGUGGCUGUGGCUAGACUGCCACUCUGGAUUCCUCGUCACUCAGCAGGGCAUCUCUGAGAGAAAUGCC [U23A U100A], with 0.86.
For the variant UACGUAGGUGGUUUUCCCCUGAAAGUGCUAAGGGGGCCUGGAAGUUUGGACUGGGCAGAGCUCAACACAGCGUGGCAAAGUGGCUGUGGCUAGACUGCCUCUCUUGAUUCCUCGUCACUCAGCAGGGCAUCUCUGAGAGAAAUGCC [U23A G105U], the self-cleavage came to 1.36.
Then UACGUAGGUGGUUUUCCCCUGAAAGUGCUAAGGGGGCCUGGAAGUUUGGACUGGGCAGAGCUCAACACAGCGUGGCAAAGUGGCUGUGGCUAGACUGCCUCUCUGGAUACCUCGUCACUCAGCAGGGCAUCUCUGAGAGAAAUGCC [U23A U109A], with 1.33; and UACGUAGGUGGUUUUCCCCUGAAAGUGCUAAGGGGGCCUGGAAGUUUGGACUGGGCAGAGCUCAACACAGCGUGGCAAAGUGGCUGUGGCUAGACUGCCUCUCUGGAUCCCUCGUCACUCAGCAGGGCAUCUCUGAGAGAAAUGCC [U23A U109C], with 1.06; and UACGUAGGUGGUUUUCCCCUGAAAGUGCUAAGGGGGCCUGGAAGUUAGGACUGGGCAGAGCUCAACACAGCGUGGCAAAGUGGCUGUGGCUAGACUGCCUCUCUGGAUUCCUCGUCACUCAGCAGGGCAUCUCUGAGAGAAAUGCC [U23A U47A], with 1.91.
Take UACGUAGGUGGUUUUCCCCUGAAAGUGCUAAGGGGGCCUGGAAGUUUGGACUGGGCAGAGCUCAACACAGCGUGGCAAAGUGGCUGUGGCUAGACUGCCUCUCUGGAUUCCUCGUCACUCAGCAGGGCACCUCUGAGAGAAAUGCC [U23A U130C]: the self-cleavage amounted to 1.44.
Regarding UACGUAGGUGGUUUUCCCCUGAAAGUGCUAAGGGGGCCUGGAAGUUUGGACUGGGCAGAGCUCAACACAGCGUGGCAAAGUGGCUGUGGCUAGACUGCCUCUCUGGAUUCCUCGUCACUCAGCAGGGCAACUCUGAGAGAAAUGCC [U23A U130A], the self-cleavage was 1.52.
UACGUAGGUGGUUUUCCCCUGAAAGUGCUAAGGGGGCCUGGAAGUUUGGACUGGGCAGAGCUCAACACAGCGUGGCAAAGUGGCUGUGGCUAGACUGCCUCUCUGGAUUCCUCGUCACUCAGCAGGGCAUCCCUGAGAGAAAUGCC [U23A U132C]: the self-cleavage amounted to 0.33.
Then UACGUAGGUGGUUUUCCCCUGAAAGUGCUAAGGGGGCCUGGAAGUUUGGACUGGGCAGAGCUCAACACAGCGUGGCAAAGUGGCUGUGGCUAGACUGCCUCUCUGGAUUCCUCGUCACUCAGCAGGGCAUCUCUGAGAGAAAAGCC [U23A U143A], with 2.26; and UACGUAGGUGGUUUUCCCCUGAAAGUGCUAAGGGGGCCUGGAAGUUUGGACUGGGCAGAGCUCAACACAGCGUGGCAAAGUGGCUGUGGCUAGACUGCCUCUCUGGACUCCUCGUCACUCAGCAGGGCAUCUCUGAGAGAAAUGCC [U23A U108C], with 1.45; and UACGUAGGUGGUUUUCCCCUGAAAGUGCUAAGGGGGCCUGGAAGUUUGGACUGGGCAGAGCUCAACACAGCGUGGCAAAGUGGCUGUGGCUAGACUGCCUCUCUGGAGUCCUCGUCACUCAGCAGGGCAUCUCUGAGAGAAAUGCC [U23A U108G], with 1.59.
Then UACGUAGGUGGUUUUCCCCUGACAGUGCUAAGGGGGCCUGGAAGUUUGGACUGGGCAGAGCUCAACACAGCGUGGCAAAGUGGCUGUGGCUAGACUGCCUCUCUGGAUUCCUCGUCACUCAGCAGGGCAUCUCUGAGAGAAAUGCC [U23C], with 1.3.
With UACGUAGGUGGUUUUCCCCUGACAGUGCUGAGGGGGCCUGGAAGUUUGGACUGGGCAGAGCUCAACACAGCGUGGCAAAGUGGCUGUGGCUAGACUGCCUCUCUGGAUUCCUCGUCACUCAGCAGGGCAUCUCUGAGAGAAAUGCC [U23C A30G] the figure was 0.89; with UACGUAGGUGGUUUUCCCCUGACAGUGCUUAGGGGGCCUGGAAGUUUGGACUGGGCAGAGCUCAACACAGCGUGGCAAAGUGGCUGUGGCUAGACUGCCUCUCUGGAUUCCUCGUCACUCAGCAGGGCAUCUCUGAGAGAAAUGCC [U23C A30U], 1.15.
UACGUAGGUGGUUUUCCCCUGAAAGUGCUAAGGGGGCCUGGAAGUUUGGACUGGGCAGAGCUCAACACAGCGUGGCAAAGCGGCUGUGGCUAGACUGCCUCUCUGGAUUCCUCGUCACUCAGCAGGGCAUCUCUGAGAGAAAUGCC [U23A U81C]: the self-cleavage was found to be 0.86.
With UACGUAGGUGGUUUUCCCCUGAAAGUGCUAAGGGGGCCUGGAAGUUUGGACUGGGCAGAGCUCAACACAGCGUGGCAAAGUGGCUGUGGCUAGACUGCCUCCCUGGAUUCCUCGUCACUCAGCAGGGCAUCUCUGAGAGAAAUGCC [U23A U102C] the figure was 2.11.
With UACGUAGGUGGUUUUCCCCUGAAAGUGCUAAGGGGGCCUGGAAGUUUGGACUGGGCAGAGCUCAACACAGCGUGGCAAAGUGGCUGUGGCUAGACUGCCUCACUGGAUUCCUCGUCACUCAGCAGGGCAUCUCUGAGAGAAAUGCC [U23A U102A] the figure was 1.18; with UACGUAGGUGGUUUUCCCCUGAAAGUGCUAAGGGGGCCUGGAAGUUUGGACUGGGCAGAGCUCAACACAGCGUGGCAAAGUGGCUGUGGCUAGACUGCCUCUCUGGAUUCCCCGUCACUCAGCAGGGCAUCUCUGAGAGAAAUGCC [U23A U112C], 1.18; with UACGUAGGUGGUUUUCCCCUGACAGUGCUAAGGGGGCCUGGAGGUUUGGACUGGGCAGAGCUCAACACAGCGUGGCAAAGUGGCUGUGGCUAGACUGCCUCUCUGGAUUCCUCGUCACUCAGCAGGGCAUCUCUGAGAGAAAUGCC [U23C A43G], 1.11.
Take UACGUAGGUGGUUUUCCCCUGACAGUGCUAAGGGGGCCUGGAUGUUUGGACUGGGCAGAGCUCAACACAGCGUGGCAAAGUGGCUGUGGCUAGACUGCCUCUCUGGAUUCCUCGUCACUCAGCAGGGCAUCUCUGAGAGAAAUGCC [U23C A43U]: the self-cleavage is 1.06.
As to UACGUAGGUGGUUUUCCCCUGAAAGUGCUAAGGGGGCCUGGAAGUUUGGACCGGGCAGAGCUCAACACAGCGUGGCAAAGUGGCUGUGGCUAGACUGCCUCUCUGGAUUCCUCGUCACUCAGCAGGGCAUCUCUGAGAGAAAUGCC [U23A U52C], the self-cleavage was 0.75.
